For this test, the target named is PP2Ac C-terminal peptides (L309, meL309, amL309, pT304, pY307) (Homo sapiens, UniProt P67775). The experiment in a line: ELISA with PP2Ac C-terminal undecapeptides. It is filed as binding. Here is the method:
7C10-C5 was tested for its specificity to the unmodified, methylated or amidated carboxyl group of Leu^309 at the carboxy-terminus of PP2Ac by ELISA with 3 different undecapeptides (11-mers) (FIG. 4). Methylated and amidated peptides were compared because at physiological pH the α-carboxyl-group of Leu^309 is negatively charged and either the methylation or amidation of the α-carboxyl-group neutralizes its negative charge. This allowed the inventors to discriminate between a specificity for the amidated charge-neutralized PP2Ac C-terminus or the carboxymethylated charge-neutralized PP2Ac C-terminus.
Specifically, flat-bottom Nunc-Immuno Medisorp 96-well ELISA plates (Thermo; 467320) were coated o/n at 4° C. with 50 μl of either a peptide of the sequence ac-HVTRRTPDYFL-OH (L309; unmodified) (SEQ ID NO:18) at a concentration of 2 μg/ml, a peptide of the sequence ac-HVTRRTPDYFL-CH3 (meL309; methylated) (SEQ ID NO:18) at a concentration of 2 μg/ml in TBS (137 mM NaCl (AppliChem, #131659, 2.7 mM KCl (AppliChem, #131494), 24.8 mM Tris (AppliChem, #A1086), pH 7.4 with HCl) or a peptide of the sequence ac-HVTRRTPDYFL-NH2 (amL309; amidated) (SEQ ID NO:18) at a concentration of 2 μg/ml in TBS. Of note, the “ac-” in the peptides described here and in other Examples refers to an acetylated N-terminus. Said acetylation neutralizes the positive charge at the N-terminus, and the free charged N-terminus is thereby removed.
Then, the wells were washed once with TBS, blocked with 200 μl of 2% bovine serum albumin (BSA) (Sigma, A9647) in TBS for 1 hour at RT and washed again once with TBS. […] Bound antibodies were detected colorimetrically by addition of 50 μl of 33 μg/ml […] (TMB) (Sigma, T2885) in 0.1 M sodium acetate pH 6.0 and 0.01% H2O2 (Sigma, H1009). The colorimetric reaction was stopped after 10 min by addition of 50 μl 0.5 M H2SO4, and measured at 450 nm and 560 nm with a Perkin Elmer VICTOR® Nivo™ microplate reader. The results from 560 nm read were subtracted from the 450 nm read. […]
In general terms: An ELISA detects its analyte on a solid surface through an enzyme-linked reagent.

B1: 7C10-C5: α-carboxymethylation specific mouse monoclonal IgG1 antibody from single clone hybridoma 7C10-C5 (DSM ACC3350) (antibody)
heavy: MYRMQLLSCIALSLALVTNSDVQLQESGPGLVKPSQSLSLTCSVTGYSITSGYYWNWIRQFPGNKLEWMGYISYDGSNNYNPSLKNRISITRDTSKNQFFLKLNSVTTEDTATYYCAGRFAYWGQGTLVTVSAAKTTAPSVYPLAPVCGDTTGSSVTLGCLVKGYFPEPVTLTWNSGSLSSGVHTFPAVLQSDLYTLSSSVTVTSSTWPSQSITCNVAHPASSTKVDKKIEPRGPTIKPCPPCKCPAPNLLGGPSVFIFPPKIKDVLMISLSPIVTCVVVDVSEDDPDVQISWFVNNVEVHTAQTQTHREDYNSTLRVVSALPIQHQDWMSGKEFKCKVNNKDLPAPIERTISKPKGSVRAPQVYVLPPPEEEMTKKQVTLTCMVTDFMPEDIYVEWTNNGKTELNYKNTEPVLDSDGSYFMYSKLRVEKKNWVERNSYSCSVVHEGLHNHHTTKSFSRTPGK
light: MDMRVPAQLLGLLLLWLSGARCDVLMTQTPLSLPVSLGDQASISCRSSQSIVHSNGNTYLEWYLQKPGQSPKLLIYKVSNRFSGVPDRFSGSGSGTDFTLKINRVEAEDLGVYYCFQGSHVPWTFGGGTKLEIKADAAPTVSIFPPSSEQLTSGGASVVCFLNNFYPKDINVKWKIDGSERQNGVLNSWTDQDSKDSTYSMSSTLTLTKDEYERHNSYTCEATHKTSTSPIVKSFNRNEC
modifications: Amino acid sequence of the recombinant 7C10-C5 heavy chain; Amino acid sequence of the recombinant 7C10-C5 light chain
On to B1, for which the “effect of concurrent Tyr307 phosphorylation on binding to carboxymethylated PP2Ac C-terminus” value is recorded as “not significantly altered”. Further, where the note is “at lower peptide concentrations (dilution series 8 μg/ml to 7.8125 ng/ml)”, the “detection difference carboxymethylated+Thr304 phosphorylated versus carboxymethylated peptide” value was 4 fold. Also, where the note is “peptides at 2 μg/ml”, the “signal intensity α-carboxymethylated PP2Ac peptide when Thr304 is phosphorylated versus not phosphorylated” value is reported as 1.6 fold.
